Assay results from patent US20220163515, “PUMILIO DOMAIN-BASED MODULAR PROTEIN ARCHITECTURE FOR RNA BINDING” (Massachusetts Institute of Technology, published 2022).

Columns and labels:
[1] = molecular target: T1, PumHD wild-type (Pumilio homology domain) (Homo sapiens, UniProt Q14671 Q14671:828-1176); assay: FP; 25 mM Tris-HCl pH 7.5, 0.5 mM EDTA, 50 mM KCl, 0.1 mg/mL BSA; active-fraction corrected; details: tags: 6xHis (pBadHisB vector); label: 5'-FAM
Experimental: (§1) Methods Enzymol 469:287-302; Heyduk T, Ma Y, Tang H, Ebright R H (1996) Fluorescence anisotropy: rapid, quantitative assay for protein-DNA and protein-protein interaction. Methods Enzymol 274:492-503; Dinman J (2013) Biophysical approaches to translational control of gene expression. 317].
(§2) The cognate and non-cognate RNA targets for the purified Pum variant proteins were synthesized with 5′-labeled FAM, 6-carboxyfluorescein (IDT). […] 50 nM cognate RNA was mixed with increasing concentration of the protein (measured by NanoDrop, Thermo Scientific) in the binding buffer (25 mM Tris-HCl pH 7.5, 0.5 mM EDTA, 50 mM KCl, 0.1 mg/mL BSA). The 100 μL samples were assayed, in duplicates, for fluorescence anisotropy using a Cary Eclipse fluorimeter (Varian) with Manual Polarizer Accessory (Varian). […] Fluorescence anisotropy was calculated as a unitless ratio defined as R═(I₌−I_{⊥})/(I₌+2I_{⊥}), where I is the emission intensity parallel (I₌) or perpendicular (I_{⊥}) to the direction of polarization of the excitation source. […] The Kd of each protein to its cognate and non-cognate RNA was subsequently measured, using the protein concentration corrected to the active protein fraction, with constant concentration of RNA. The Kd was calculated from a non-linear fit in IgorPro 6.22 of the anisotropy vs. protein concentration plot to the equation [Qu X, Chaires J B (2000) Analysis of drug-DNA binding data.

[2] = molecular target: T1, PumHD wild-type (Pumilio homology …); assay: FP; no detectable binding, fit did not converge; details: tags: 6xHis (pBadHisB vector); label: 5'-FAM
Experimental: as §1, §2

T1 sequence (Q14671 828-1176, one chain of several): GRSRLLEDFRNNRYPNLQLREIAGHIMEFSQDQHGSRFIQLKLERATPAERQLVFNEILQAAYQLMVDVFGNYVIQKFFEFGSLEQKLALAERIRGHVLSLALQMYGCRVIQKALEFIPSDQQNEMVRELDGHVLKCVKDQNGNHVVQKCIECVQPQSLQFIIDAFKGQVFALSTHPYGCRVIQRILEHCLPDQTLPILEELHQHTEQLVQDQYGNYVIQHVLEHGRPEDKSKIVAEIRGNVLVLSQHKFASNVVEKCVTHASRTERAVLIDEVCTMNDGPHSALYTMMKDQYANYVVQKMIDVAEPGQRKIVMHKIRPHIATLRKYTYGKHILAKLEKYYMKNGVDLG

B1: wild-type NRE cognate (ssRNA)
RNA: CCAGAAUUGUAUAUAUUCG
Kd [1]: 88 pM

B2: wild-type noncognate (ssRNA)
RNA: ACAUAUAU
binding result [2]: no binding
